The text below walks through data of article PMC7251641.

The target in the test is Htz1^Flag (S. cerevisiae histone H2A.Z with a Flag epitope tag) (S. cerevisiae) (UniProt Q12692). As to the kind of experiment: co-IP.
Chain of Htz1^Flag (S. cerevisiae histone H2A.Z with a Flag epitope tag) (S. cerevisiae) (Q12692 whole entry): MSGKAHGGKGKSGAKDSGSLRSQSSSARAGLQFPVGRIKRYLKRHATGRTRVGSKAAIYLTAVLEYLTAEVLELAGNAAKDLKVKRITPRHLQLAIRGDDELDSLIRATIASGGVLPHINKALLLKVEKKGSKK

Chain of histone H2A (S. cerevisiae, endogenous) (P04911 whole entry): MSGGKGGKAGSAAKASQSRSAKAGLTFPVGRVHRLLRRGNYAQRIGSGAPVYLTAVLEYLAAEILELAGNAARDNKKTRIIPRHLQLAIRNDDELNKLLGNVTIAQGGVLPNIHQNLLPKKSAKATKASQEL

As for “histone H2A (S. cerevisiae, endogenous) (from UniProt P04911 1-132) (natural protein)”, the estimated molar ratio of H2A and Htz1^Flag in the Flag eluate is 0.49.
